Measured values from publication PMC10321576 (2023).
Bridge positions count the residues as written; N and C are the ends. Square brackets hold non-standard residues; d marks the D form. Ends that are not written are not given here. Lys(Me3) = C[N+](C)(C)CCCC[C@H](N)C(=O)O

B1: KDM7B (PHF8, JHDM1F) dual domain (PHD-JmjC) (domain or fragment)
chain: MASVPVYCLCRLPYDVTRFMIECDMCQDWFHGSCVGVEEEKAADIDLYHCPNCEVLHGPSIMKKRRGSSKGHDTHKGKPVKTGSPTFVRELRSRTFDSSDEVILKPTGNQLTVEFLEENSFSVPILVLKKDGLGMTLPSPSFTVRDVEHYVGSDKEIDVIDVTRQADCKMKLGDFVKYYYSGKREKVLNVISLEFSDTRLSNLVETPKIVRKLSWVENLWPEECVFERPNVQKYCLMSVRDSYTDFHIDFGGTSVWYHVLKGEKIFYLIRPTNANLTLFECWSSSSNQNEMFFGDQVDKCYKCSVKQGQTLFIPTGWIHAVLTPVDCLAFGGNFLHSLNIEMQLKAYEIEKRLSTADLFRFPNFETICWYVGKHILDIFRGLRENRRHPASYLVHGGKALNLAFRAWTRKEALPDHEDEIPETVRTVQLIKDLAREIRLVEDIFQQN

Columns and labels:
KDM7B PHD-finger [1] = target: T1, KDM7B PHD-finger (UniProt Q9UPP1-2 1-447)
T1 chain: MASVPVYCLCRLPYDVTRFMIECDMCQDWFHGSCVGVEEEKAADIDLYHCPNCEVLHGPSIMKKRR

KDM7B PHD-finger [2] = target: T1, KDM7B PHD-finger; experiment: ITC; His-Trx-tagged PHD
ING2 PHD-finger [3] = target: T2, ING2 PHD-finger
T2 chain: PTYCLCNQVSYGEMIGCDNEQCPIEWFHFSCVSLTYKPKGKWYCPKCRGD

KDM5A PHD3 PHD-finger = target: T3, KDM5A PHD3 PHD-finger
T3 chain: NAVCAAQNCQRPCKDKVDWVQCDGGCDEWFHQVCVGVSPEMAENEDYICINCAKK

TAF3 PHD-finger [4] = target: T4, TAF3 PHD-finger
T4 chain: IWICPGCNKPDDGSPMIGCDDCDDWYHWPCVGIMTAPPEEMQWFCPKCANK

[5] = target: T5, KDM7A (KIAA1718) PHD-finger
T5 chain: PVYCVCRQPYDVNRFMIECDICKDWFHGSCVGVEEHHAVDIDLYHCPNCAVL

KDM7C (PHF2) PHD-finger [6] = target: T6, KDM7C (PHF2) PHD-finger
T6 chain: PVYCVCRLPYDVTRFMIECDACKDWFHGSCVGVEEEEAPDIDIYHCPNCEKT

[7] = target: B1
[8] = target: KDM7A (KIAA1718) dual domain
Chain of KDM7A (KIAA1718) dual domain (chain, as listed by the source): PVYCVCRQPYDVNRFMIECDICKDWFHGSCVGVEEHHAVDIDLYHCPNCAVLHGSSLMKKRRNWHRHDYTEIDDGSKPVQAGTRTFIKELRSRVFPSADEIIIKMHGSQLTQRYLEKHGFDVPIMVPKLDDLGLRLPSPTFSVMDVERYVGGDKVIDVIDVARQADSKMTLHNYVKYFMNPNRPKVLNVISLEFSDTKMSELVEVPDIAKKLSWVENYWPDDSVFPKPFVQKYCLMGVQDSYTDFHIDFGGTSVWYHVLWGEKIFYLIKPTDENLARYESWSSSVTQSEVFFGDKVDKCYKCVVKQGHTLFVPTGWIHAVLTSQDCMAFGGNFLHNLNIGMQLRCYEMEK

[9] = target: SPIN1 triple tudor domain
Chain of SPIN1 triple tudor domain (chain, as listed by the source): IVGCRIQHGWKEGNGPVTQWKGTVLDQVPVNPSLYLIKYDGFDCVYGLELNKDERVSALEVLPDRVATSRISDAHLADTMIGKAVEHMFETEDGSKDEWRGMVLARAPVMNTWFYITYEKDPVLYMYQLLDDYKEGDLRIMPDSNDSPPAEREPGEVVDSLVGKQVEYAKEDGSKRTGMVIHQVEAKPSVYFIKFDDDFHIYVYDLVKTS

[10] = target: T5, KDM7A (KIAA1718) PHD-finger; experiment: ITC
[11] = target: KDM7A (KIAA1718) dual domain; experiment: ITC
[12] = target: T5, KDM7A (KIAA1718) PHD-finger; experiment: ITC
ING2 PHD-finger [13] = target: T2, ING2 PHD-finger; experiment: BLI
TAF3 PHD-finger [14] = target: T4, TAF3 PHD-finger; experiment: BLI
[15] = target: T5, KDM7A (KIAA1718) PHD-finger; experiment: BLI
DIDO1 PHD-finger = target: T7, DIDO1 PHD-finger; experiment: BLI
T7 chain: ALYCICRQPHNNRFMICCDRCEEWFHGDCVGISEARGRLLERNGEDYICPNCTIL

KDM7C (PHF2) PHD-finger [16] = target: T6, KDM7C (PHF2) PHD-finger; experiment: BLI
[17] = target: KDM7A (KIAA1718) dual domain; experiment: BLI
[18] = target: SPIN1 triple tudor domain; experiment: BLI
OC3 = experiment: ITC

YYLTHPYPS[Lys(Me3)]FRTC (ends and bridges not checked) [OC9 V10Kme3] was tested, and the IC50 (KDM7B PHD-finger [1]) was 234 nM.

{CH2CO}-YYLTHPYPSVFRTC (thioether N-14) [OC9, de novo cyclic peptide from mRNA display] was tested, and the Kd (KDM7B PHD-finger [2]) was 8 nM, the IC50 (ING2 PHD-finger [3]) was over 5010 nM and the IC50 (KDM5A PHD3 PHD-finger) was over 5010 nM. It also gave an IC50 (TAF3 PHD-finger [4]) of over 5010 nM, an IC50 [5] of 63.1 nM and an IC50 (KDM7C (PHF2) PHD-finger [6]) of 25.1 nM. For the same binder, the IC50 [7] was 100 nM, the IC50 [8] was 126 nM and the IC50 [9] was over 2000 nM. For the same binder, the Kd [10] was 31.6 nM, the Kd [11] was 31.6 nM and the Kd [12] was 33 nM. It also gave a Kd (ING2 PHD-finger [13]) of over 1000 nM, a Kd (TAF3 PHD-finger [14]) of over 1000 nM and a Kd [15] of 20 nM. It also gave a Kd (DIDO1 PHD-finger) of over 1000 nM, a Kd (KDM7C (PHF2) PHD-finger [16]) of 1 nM and a Kd [17] of 39.8 nM. For the same binder, the Kd [18] was over 1000 nM.

YYL[dA]HPYPSVFRTC (ends and bridges not checked) [OC9 with T4 replaced with D-alanine] gave an IC50 (KDM7B PHD-finger [1]) of 45 nM.

Work on B1 yielded a Kd (OC3) of 163 nM.

Work on YYLT[dA]PYPSVFRTC (ends and bridges not checked) [OC9 with H5 replaced with D-alanine] yielded an IC50 (KDM7B PHD-finger [1]) of 20 nM.
